Results from the supplement of paper PMC10567573.

B1: SPATS1 (parent)
chain: GRKKYDIDPRNGIPKLTPGDNPYM

Variants of: B1
Experiment: protein stability index of a GFP-peptide fusion (GPS, HEK-293T) (PSI 1-6); higher = more stable
Conditions: c terminus: a fixed tail appended
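Further: lentivirally expressed fusions sorted by FACS into six bins by GFP to DsRed ratio, PSI derived from sequencing read proportions per bin multiplied by bin number.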

| Variant | protein stability index |
| --- | --- |
| GRPKYDIDPRNGIPKLTPGDNPYM [K3P] | 3.29 |
| GRRKYDIDPRNGIPKLTPGDNPYM [K3R] | 3.27 |
| GRQKYDIDPRNGIPKLTPGDNPYM [K3Q] | 3.8 |
| GRGKYDIDPRNGIPKLTPGDNPYM [K3G] | 3.53 |
| GRLKYDIDPRNGIPKLTPGDNPYM [K3L] | 3.19 |
| GRIKYDIDPRNGIPKLTPGDNPYM [K3I] | 3.39 |
| GRTKYDIDPRNGIPKLTPGDNPYM [K3T] | 3.73 |
| GRMKYDIDPRNGIPKLTPGDNPYM [K3M] | 3.2 |
| GRYKYDIDPRNGIPKLTPGDNPYM [K3Y] | 2.77 |
| GRFKYDIDPRNGIPKLTPGDNPYM [K3F] | 2.83 |
| GRSKYDIDPRNGIPKLTPGDNPYM [K3S] | 3.25 |
| GRDKYDIDPRNGIPKLTPGDNPYM [K3D] | 4.24 |
| GRNKYDIDPRNGIPKLTPGDNPYM [K3N] | 3.32 |
| GRAKYDIDPRNGIPKLTPGDNPYM [K3A] | 3.2 |
| GRCKYDIDPRNGIPKLTPGDNPYM [K3C] | 2.29 |
| GRHKYDIDPRNGIPKLTPGDNPYM [K3H] | 3.67 |
| GREKYDIDPRNGIPKLTPGDNPYM [K3E] | 3.79 |
| GRWKYDIDPRNGIPKLTPGDNPYM [K3W] | 2.91 |
| GRKKPDIDPRNGIPKLTPGDNPYM [Y5P] | 3.38 |
| GRKKFDIDPRNGIPKLTPGDNPYM [Y5F] | 3.51 |
| GRKKLDIDPRNGIPKLTPGDNPYM [Y5L] | 4.43 |
| GRKKHDIDPRNGIPKLTPGDNPYM [Y5H] | 3.88 |
| GRKKSDIDPRNGIPKLTPGDNPYM [Y5S] | 4.36 |
| GRKKIDIDPRNGIPKLTPGDNPYM [Y5I] | 3.4 |

| Variant | protein stability index |
| --- | --- |
| GRKKRDIDPRNGIPKLTPGDNPYM [Y5R] | 4.07 |
| GRKKDDIDPRNGIPKLTPGDNPYM [Y5D] | 4.64 |
| GRKKMDIDPRNGIPKLTPGDNPYM [Y5M] | 3.65 |
| GRKKNDIDPRNGIPKLTPGDNPYM [Y5N] | 3.93 |
| GRKKCDIDPRNGIPKLTPGDNPYM [Y5C] | 4.08 |
| GRKKGDIDPRNGIPKLTPGDNPYM [Y5G] | 4.44 |
| GRKKVDIDPRNGIPKLTPGDNPYM [Y5V] | 4.04 |
| GRKKQDIDPRNGIPKLTPGDNPYM [Y5Q] | 4.27 |
| GRKKKDIDPRNGIPKLTPGDNPYM [Y5K] | 4.23 |
| GRKKTDIDPRNGIPKLTPGDNPYM [Y5T] | 4.11 |
| GRKKWDIDPRNGIPKLTPGDNPYM [Y5W] | 2.92 |
| GRKKADIDPRNGIPKLTPGDNPYM [Y5A] | 4.14 |
| GRKKEDIDPRNGIPKLTPGDNPYM [Y5E] | 4.86 |
| KRKKYDIDPRNGIPKLTPGDNPYM [G1K] | 3.25 |
| SRKKYDIDPRNGIPKLTPGDNPYM [G1S] | 3.65 |
| FRKKYDIDPRNGIPKLTPGDNPYM [G1F] | 2.88 |
| TRKKYDIDPRNGIPKLTPGDNPYM [G1T] | 3.4 |
| ERKKYDIDPRNGIPKLTPGDNPYM [G1E] | 3.96 |
| NRKKYDIDPRNGIPKLTPGDNPYM [G1N] | 3.54 |
| IRKKYDIDPRNGIPKLTPGDNPYM [G1I] | 2.66 |
| ARKKYDIDPRNGIPKLTPGDNPYM [G1A] | 3.48 |
| VRKKYDIDPRNGIPKLTPGDNPYM [G1V] | 3.68 |
| PRKKYDIDPRNGIPKLTPGDNPYM [G1P] | 3.51 |
| YRKKYDIDPRNGIPKLTPGDNPYM [G1Y] | 3.31 |

| Variant | protein stability index |
| --- | --- |
| RRKKYDIDPRNGIPKLTPGDNPYM [G1R] | 3.93 |
| HRKKYDIDPRNGIPKLTPGDNPYM [G1H] | 3.25 |
| CRKKYDIDPRNGIPKLTPGDNPYM [G1C] | 2.83 |
| DRKKYDIDPRNGIPKLTPGDNPYM [G1D] | 3.85 |
| QRKKYDIDPRNGIPKLTPGDNPYM [G1Q] | 3.52 |
| MRKKYDIDPRNGIPKLTPGDNPYM [G1M] | 3.12 |
| LRKKYDIDPRNGIPKLTPGDNPYM [G1L] | 2.96 |
| WRKKYDIDPRNGIPKLTPGDNPYM [G1W] | 2.78 |
| GQKKYDIDPRNGIPKLTPGDNPYM [R2Q] | 3.59 |
| GVKKYDIDPRNGIPKLTPGDNPYM [R2V] | 3.73 |
| GDKKYDIDPRNGIPKLTPGDNPYM [R2D] | 4.13 |
| GHKKYDIDPRNGIPKLTPGDNPYM [R2H] | 3.85 |
| GSKKYDIDPRNGIPKLTPGDNPYM [R2S] | 3.66 |
| GWKKYDIDPRNGIPKLTPGDNPYM [R2W] | 2.73 |
| GPKKYDIDPRNGIPKLTPGDNPYM [R2P] | 3.73 |
| GEKKYDIDPRNGIPKLTPGDNPYM [R2E] | 4.15 |
| GGKKYDIDPRNGIPKLTPGDNPYM [R2G] | 3.39 |
| GAKKYDIDPRNGIPKLTPGDNPYM [R2A] | 3.51 |
| GYKKYDIDPRNGIPKLTPGDNPYM [R2Y] | 3.15 |
| GFKKYDIDPRNGIPKLTPGDNPYM [R2F] | 3.4 |
| GLKKYDIDPRNGIPKLTPGDNPYM [R2L] | 3.12 |
| GKKKYDIDPRNGIPKLTPGDNPYM [R2K] | 3.61 |
| GMKKYDIDPRNGIPKLTPGDNPYM [R2M] | 3.37 |
| GTKKYDIDPRNGIPKLTPGDNPYM [R2T] | 3.15 |

| Variant | protein stability index |
| --- | --- |
| GNKKYDIDPRNGIPKLTPGDNPYM [R2N] | 3.44 |
| GCKKYDIDPRNGIPKLTPGDNPYM [R2C] | 3.3 |
| GIKKYDIDPRNGIPKLTPGDNPYM [R2I] | 3.25 |
| GRKSYDIDPRNGIPKLTPGDNPYM [K4S] | 3.83 |
| GRKGYDIDPRNGIPKLTPGDNPYM [K4G] | 3.71 |
| GRKRYDIDPRNGIPKLTPGDNPYM [K4R] | 3.19 |
| GRKLYDIDPRNGIPKLTPGDNPYM [K4L] | 2.91 |
| GRKYYDIDPRNGIPKLTPGDNPYM [K4Y] | 3.22 |
| GRKAYDIDPRNGIPKLTPGDNPYM [K4A] | 3.38 |
| GRKPYDIDPRNGIPKLTPGDNPYM [K4P] | 3.52 |
| GRKFYDIDPRNGIPKLTPGDNPYM [K4F] | 2.62 |
| GRKMYDIDPRNGIPKLTPGDNPYM [K4M] | 3.5 |
| GRKDYDIDPRNGIPKLTPGDNPYM [K4D] | 3.83 |
| GRKQYDIDPRNGIPKLTPGDNPYM [K4Q] | 3.23 |
| GRKNYDIDPRNGIPKLTPGDNPYM [K4N] | 3.88 |
| GRKHYDIDPRNGIPKLTPGDNPYM [K4H] | 3.2 |
| GRKIYDIDPRNGIPKLTPGDNPYM [K4I] | 3.33 |
| GRKWYDIDPRNGIPKLTPGDNPYM [K4W] | 3.03 |
| GRKEYDIDPRNGIPKLTPGDNPYM [K4E] | 4.1 |
| GRKTYDIDPRNGIPKLTPGDNPYM [K4T] | 3.48 |
| GRKCYDIDPRNGIPKLTPGDNPYM [K4C] | 2.81 |
| GRKVYDIDPRNGIPKLTPGDNPYM [K4V] | 3.29 |
